According to article PMC3584020:

Target: LexA-PRAME, P78395
Assay: yeast two hybrid
Conditions: chain shown with the change; LexA-PRAME (1-509); β-galactosidase activity normalised to amount of protein in the extracts; parent: est. 160; read off a plot

LexA-PRAME, P78395, sequence (P78395 whole entry): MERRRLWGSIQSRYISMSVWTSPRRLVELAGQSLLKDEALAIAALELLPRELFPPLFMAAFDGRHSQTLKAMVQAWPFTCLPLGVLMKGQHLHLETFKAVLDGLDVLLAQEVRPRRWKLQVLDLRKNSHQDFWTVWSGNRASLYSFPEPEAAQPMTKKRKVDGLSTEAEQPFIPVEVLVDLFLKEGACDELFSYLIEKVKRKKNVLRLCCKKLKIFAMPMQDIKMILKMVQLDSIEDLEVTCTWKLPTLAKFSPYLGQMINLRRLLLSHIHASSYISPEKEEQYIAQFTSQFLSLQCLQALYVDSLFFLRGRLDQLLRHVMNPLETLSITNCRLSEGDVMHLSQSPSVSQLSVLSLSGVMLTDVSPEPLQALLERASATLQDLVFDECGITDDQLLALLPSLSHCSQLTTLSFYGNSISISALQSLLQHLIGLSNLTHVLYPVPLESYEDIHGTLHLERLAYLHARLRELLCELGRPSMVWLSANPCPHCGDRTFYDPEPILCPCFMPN

B1: GAL4 AD-fused C. elegans ELC (wELC) L47D; L49D; Y88D; Y91D (protein)
chain: MADQNNAIQCDQDAAQPKQYGGIEGPTSQYVKLVSSDDHEFIIKREDADTSGTIRAMLSGPGVYAENESNVVYFREIPSHVLQKVCQDFADKVRYTHAATEIPEFPIPPDVALELLMAANFLDC
With B1 the response (Units β-Galactosidase) was 5.
